The test concerns the target Snf1 (wild type) (S. cerevisiae (endogenous in yeast)) (UniProt P06782). The test can be described thus: pull-down.

“And” between values parts separate entries of the source, which are not always exact repeats. Equal values may be shown once.

Chain of UniProt P06782 (P06782 whole entry): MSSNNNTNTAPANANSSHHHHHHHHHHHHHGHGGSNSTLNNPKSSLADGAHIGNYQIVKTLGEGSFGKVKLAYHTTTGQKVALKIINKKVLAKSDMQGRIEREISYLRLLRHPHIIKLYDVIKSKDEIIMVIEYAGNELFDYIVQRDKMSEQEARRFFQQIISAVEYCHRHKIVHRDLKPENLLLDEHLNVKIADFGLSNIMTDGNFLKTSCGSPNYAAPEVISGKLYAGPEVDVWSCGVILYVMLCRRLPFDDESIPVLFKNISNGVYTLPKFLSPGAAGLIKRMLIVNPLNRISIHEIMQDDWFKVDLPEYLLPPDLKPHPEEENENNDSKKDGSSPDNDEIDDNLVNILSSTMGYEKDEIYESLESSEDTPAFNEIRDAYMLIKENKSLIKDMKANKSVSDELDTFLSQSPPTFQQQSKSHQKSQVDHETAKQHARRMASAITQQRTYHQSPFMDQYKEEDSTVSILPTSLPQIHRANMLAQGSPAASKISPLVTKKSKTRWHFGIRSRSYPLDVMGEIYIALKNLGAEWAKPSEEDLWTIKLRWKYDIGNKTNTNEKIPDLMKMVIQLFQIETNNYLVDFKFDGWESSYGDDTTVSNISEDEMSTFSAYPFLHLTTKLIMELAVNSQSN

For “Bmh (Bmh1 and Bmh2, collectively) (from UniProt P29311 1-267) (natural protein)”, the percent of Snf1 bound to Bmh is 30% and 50%.

The values are drawn from PMC4937304.
